Test results taken from the nanobody polyreactivity screen of Harvey et al. (2022).

Test: yeast display, Sf9 membrane polyspecificity reagent, FACS + sequencing; frameworks hold sequencing errors
How it was run: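 In a synthetic yeast display library (Saccharomyces cerevisiae BJ5465), nanobody expression was induced with galactose for 36–48 hours. FACS gates were set low and high (top ~1%) using anti-HA fluorescence for expression and streptavidin fluorescence for binding of the Sf9 membrane reagent. Each polyreactivity label is drawn from the gate of origin.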

Sequence | polyreactivity (PSR sort gate)
QVQLVESGGGLVQAGGSLRLSCASSGNIFVAYAMGWYRQAPGKERELVAAITSGGRTYADSVKGRFTISRDNAKNTVYLQMNSLKPEDTAVYYCNADPYYVYLGYYDRYYSGYGYWGQGTQVTVSS | low polyreactivity
QVQLVESGGGLVQAGGSLRLSCASSGNTFKTNAMGWYRQAPGKERELVAAISSSGSTYYADSVKGRFTISRDNAKNTVYLQMNSLKPEDTAVYYCAVTYRRFYYWGQGTQVTVSS | high polyreactivity
QVQLVESGGGLVQAGGSLRLSCASSGRIFFMYAMGWYIQAPGKERELVAAINKSGGSTYADSVKGRFTISRDNANNTVYLQMNSLKPEDTAVYYCATENTDSGESVYIVKYGSDYWGQGTQVTVSS | low polyreactivity
QVQLVESGGGLVQAGGSLRLSCASSGRIFGSYAMGWYRQAPGKERELVAGIRSVGSTNYADSVKGRFTISRDNAKNTVFLQINSLKPEDTAVYYCAARLWHLSYAGQGGDYWGQVTQVTVSS | low polyreactivity
QVQLVESGGGLVQAGGSLRLSCASSGRIFYSYAMGWYRQAPGKERELVAAITVSGGSTFYADSVKGRFTISRDNAKNTVYLQMNSLKPEDTAVYYCAAQSTTIEDGWYVEYNYWGQGTQVTVSS | high polyreactivity
QVQLVESGGGLVQAGGSLRLSCASSGRIIINYDMGWYRQAPGKEIELVAAITWSTGSTYADSVKGRFTISRDNAKNTVYLQMNSLKPEDTAVYYCAAPWGQTDDRHQGGDYWGQGTQVTVSS | low polyreactivity
QVQLVESGGGLVQAGGSLRLSCASSGRTFLGYAMGWYRQAPGKERELVAAISYSGSSTYYADSVKGRFTISRDNAKNTVYLQMNSLKPEDTAVYYCAAQFYFLFDYWGQGTQVTVSS | low polyreactivity
QVQLVESGGGLVQAGGSLRLSCASSGRTFTPYAMGWSTQAPGKERELVAAISRRAGTTYYADSVKGRFTISRDKAKNYGFLQMNRLKPEETEVYYCAALTESSSYGYWGQGTQVNVSS | low polyreactivity
QVQLVESGGGLVQAGGSLRLSCASSGRTFTYYTMGWYRQAPGKERELVAAISSSGGSTYYADSVKGRFTISRDNAKNTVYLQMNSLKPEDTAVYYCAAVRGRLLPPYGYWGQGTQVTVSS | high polyreactivity
QVQLVESGGGLVQAGGSLRLSCASSGRTFVSNAKGWYRQAPGKERELVAVITGIGGNTYYADSVKGRFTISRDNAKNSDYLQMNSLKPEDTAVYYCAADISLVSYYYWGQGTQVTVSS | low polyreactivity
QVQLVESGGGLVQAGGSLRLSCASSGRTSLGYVMGWYRQAPGKERELVAAITKSGGSTYYADSVKGRFTISRDNAKNTVYLQMNSQKPEDTAVYYCAARNPWSARYEYWGQGTQVTVSS | high polyreactivity
QVQLVESGGGLVQAGGSLRLSCASSGSIFALNAMGWYRQAPGKERELVAAISSSGGNTYYADSVKGRFTISRDNAKNTVYLQMNSLKPEDTAVYYCNRVAYRNDFDYWGQGTQVTVSS | low polyreactivity
QVQLVESGGGLVQAGGSLRLSCASSGSIFPAYAMGWYRQAPGKERELVAAISSRGGSTYYADSVKGRFTISRDNAKNTVYLQMNSLKPEDTAVYYCAASRWLYYYLFEYWGQGTQVTVSS | high polyreactivity
QVQLVESGGGLVQAGGSLRLSCASSGSIFSKYAMGWYRQAPGKERELVAAITLNGGSTYYADSVKGRFTISRDNAKNTVYLQMNSLKPEDTAVYYCAKSDRPWWGYYYSWGQGSQVTVSS | low polyreactivity
QVQLVESGGGLVQAGGSLRLSCASSGSIFVANAMGWYRQAPGKERELVAAISVRGGRTYYADSVKGRFTISRDNAKNTVYLQMNSLKPEDTAVYYCARVLRSDVADYDYWGQGTQVSVSS | high polyreactivity
QVQLVESGGGLVQAGGSLRLSCASSGSILWLNAMGWYRQAPGKERDLVAAITSRGGSTYYADSVKGRYTITRDNANNTVYLQMNSLKPEDTAVYYCATRSSRGSGSRFDYWGQGTQVTVSS | high polyreactivity
QVQLVESGGGLVQAGGSLRLSCASSGSTFAIYAMGWYRQAPGKESELVAAITRSGGNAYYADSVKGRFTISRDNAKNTVYLQMNSLKPEDTAVYYCNAETYYWSAYAQYDYWGQGTQVTVSS | high polyreactivity
QVQLVESGGGLVQAGGSLRLSCASSGSTFDYYMGWYRHAPGKERELVAAITYSGGSTYYADSVKGRFTISRDNAKNTVYLQMKSLKPEDTAVYYCAKDRSTFDDFYSNYYWGQGTQVTVSS | low polyreactivity
QVQLVESGGGLVQAGGSLRLSCASSGSTFLAYAMGWDRQAPGKERELVAAISSRGSRTYYADSLKGRCTISRDTAKNTVYLQMNSLKPEDTAVYYCAARYPSGYYYWGQGTQVTVSS | high polyreactivity
QVQLVESGGGLVQAGGSLRLSCASSGSTFSANTKGWYRQAPGKERELVAAINSSGGSSTYYADSVKGRFTISRDNAKNTVYLQMKSLKPEDTAVYYCAAENSVPRGVLGGEFDYWGQGTQVTVSS | low polyreactivity
QVQLVESGGGLVQAGGSLRLSCASSGSTFYGNAMGWYRQAPGKERELVATISSGGSTDYADSVKGRFTISRDNAKNTVYLQMNSLKPEDTAVYYCATDNYLGYYYKDGVLDDYWGQGTQVTVSS | low polyreactivity
QVQLVESGGGLVQAGGSLRLSCASSGSTFYGNAMGWYRQEPGKERELVASISSGGTNYADSVKGRFTISRDNAKNTVYLQMNSLKPEDTAVYYLNADYIDTFRGFDYWGQGTQVTVSS | low polyreactivity

Sequence | polyreactivity (PSR sort gate)
QVQLVESGGGLVQAGGSLRLSCASSGSTIRSYAMGWYRQAPGKERELVAVISSGDSTYYADSVKGRFTISRDNAKNTVYLQMNSLKPDDTAVYYCAADSYVLGRWYGYWGQGTQVTVSS | low polyreactivity
QVQLVESGGGLVQAGGSLRLSCASSGSTYYVYGMVWYRQAPGKERELVAAISWSGGDTYYADSVKGRFTISRDNAKKTVYFQMNPLKPEDTGVYYCAAVYNYPVVCEYDYWGQGTQVTVSS | high polyreactivity
QVQLVESGGGLVQAGGSLRLSCASSRNIFYLYAMGWYRQAPGKEREFSTSYADSEKGRFTISRDNAKNTVYLQMNSLKPEDTAVYYCAAYNSRGPYYYLFDYWGQGSQVTVSS | low polyreactivity
QVQLVESGGGLVQAGGSLRLSCASYGSIFSSYFMGWYRQAPGKERELVAAISSGGRTYYADSVKGRFTISRDNAKNTVYIQMKSLKPEDTAVFYCNRVRYRQSAFDYWGQGTQVTVSS | high polyreactivity
QVQLVESGGGLVQAGGSLRLSCATSGGIFDSYAMVWYRQAPGKERELVASISWSGGSTYYADSVKGRFTISRDNEKNTVYLQMKSLKPEVTAVYYCAADRPYAGRFWKGYHSALYDYWGQGTQVTVSS | low polyreactivity
QVQLVESGGGLVQAGGSLRLSCAYSGRTFYYNTMGWYRQAPGKEREFVATISRIGGSTYYADSVKGRFTISRDNAKNTVYFQMNSLKPEDTAVYYCAKGRSLNGLPPVVYWQLFYYWGQGTLVTVSS | high polyreactivity
QVQLVESGGGLVQAGGSLRLSCDASASILRENAMGWYRQAPGKERELVAVITRGGNTYYADSVKGRFTISRDNAKNTVYLQMNSLKPEDTAVYYCAAKRRERYGQTYGYWGQGTQVTVSS | high polyreactivity
QVQLVESGGGLVQAGGSLRLSCDASGFIFRRYTMGWNRQAPGKETELVPAITSSGGTNYADSVKGRFTISRDNAKNNVFVLRNSLKPEDTAVYYCAARRLTQQGYGGGYWGQGTQVTVAS | high polyreactivity
QVQLVESGGGLVQAGGSLRLSCDASGFIFVRYAMGWYRQAPGKEREFVAAISRSGGSTYYADSVKGRFTISRDNAKNTVYLQMNSLKPEDTAVYYCARQYASPRREFEYWGQGTQVTVSS | high polyreactivity
QVQLVESGGGLVQAGGSLRLSCDASGFILYYNAMGWYRQAPGKEREMVAAITSGGGGTYYADSVKGRFTNSRDNAKNTVYFQMNSLNPEDTAVYYCNTRFGYRGGVDFDYWGQGTQVTVSS | high polyreactivity
QVQLVESGGGLVQAGGSLRLSCDASGFTFGRNAMGWYRQAPGKERELVAAISSSGGTTYYADSVKGRFTISRDNAKNTVYLQMNSLKPEDTAVYYCAAGYYYRYDYWGQGTQVTVSS | high polyreactivity
QVQLVESGGGLVQAGGSLRLSCDASGFTFPSYAMGWYRQAPGKERELVAAISYRGGRTYYADSVKGRFTISRDNAKNTVYLQMNSLKPEDTAVYYCAAAGYAWWGEYEYWGQGTQVTVSS | high polyreactivity
QVQLVESGGGLVQAGGSLRLSCDASGFTFVYYAMGCYRQAPGKERELVAAISGRGGSTYYADSVKGRFTISRDNAKNTVYLQMNSLKPEDTAVYYCATTYSWYYVPYKTHIYYYWGQGTQVTVSS | low polyreactivity
QVQLVESGGGLVQAGGSLRLSCDASGFTFYKNAMGWYRQAPGKERELVAAISSGGSTSYADSVKGRFTISRDNAKNTVYLQMNSLKPEDTAVYFCAADRFAFYGRYRGPYYYWGQGTQVTVSS | high polyreactivity
QVQLVESGGGLVQAGGSLRLSCDASGFTFYYYAMGWYRPAPGKERELVAAISSSGSSTYYADSVKGRFTISRDNAKNTVYLQMNSLKPEDTAVYYCNARRYEYLWGDYWGQGTQVTVSS | high polyreactivity
QVQLVESGGGLVQAGGSLRLSCDASGGTFYVNHMAWYRPAPWKERELVATITYSGTSTYYADSVKGRFTISRDNAKNTVYLQMNSLKPEDTAVYYCATDVLLYFEPVNLDYWGQGTQVTVSS | low polyreactivity
QVQLVESGGGLVQAGGSLRLSCDASGIIFAWYAMGWSRQAPGKERELVAAISSDGITKDADSVKGRFTISRDNAKNTVYLQMNSLKPEDTAVYYCAAGLGWGLYWIDSYEYWGQGTQVTVSS | low polyreactivity
QVQLVESGGGLVQAGGSLRLSCDASGIIFGYYAMGWYRQAPGKERELVAGITWRGDITYADSVKGRFTISRDNAKNTVYLQMNSLKPEDTAVYYCAAESSFYRGYGYWGQGTQVTVSS | high polyreactivity
QVQLVESGGGLVQAGGSLRLSCDASGIIFTFYTMGWYRQAPGKERELVAAITWSGGSTNYADSVKGRFTISRDNAKNTVYLQMNSLKPEDTAVYYCAAQGYPQSPPWEDYWGQGTQVTVSS | low polyreactivity
QVQLVESGGGLVQAGGSLRLSCDASGITFYRYAMGWYRQAPGKERELVAAITSGDTTYYADSVKGRFTISRDNAKNTVYLQMNSLKPEDTADYYCAAVAGYRVVRTRELGYWGQGTQVTVSS | high polyreactivity
QVQLVESGGGLVQAGGSLRLSCDASGLTFRYYAMVWYRQAHGKERELDATITRAGRTNYADSVKGRFTISRDNAKNTVYFQMNRLNPEDTAVYYCNAKQSGKYPRVVGYDYWGQGTQVTVSS | high polyreactivity
